Data set [1] has as its target T1, glutathione S-transferase (UniProt P08515 P08515:1-218). Briefly: EMSA; control. The settings on record: tags: pGEX-3X (Pharmacia), chain copies: 2, label: 32P (when probe). An excerpt: (§1) The constructs tested included a deletion of the amino terminus of ILF, a deletion of both the amino and carboxyl termini of ILF, or a deletion of the fork head domain in addition to the amino and carboxyl termini of ILF. Oligonucleotides corresponding to the distal ILF site in the HIV-LTR, the NFAT site in the IL-2 promoter, and an HIV-LTR fragment containing the distal ILF site were used in gel retardation analysis.
(§2) Figure 5C: FIG. 5. Gel retardation analysis of glutathione S-transferase/ILF fusions. Gel retardation analysis was performed with either ILF oligonucleotides (A), a fragment extending from −310 and −255 in the HIV-LTR (B), or NFAT oligonucleotides (C) and 4 μg of each of the glutathione S-transferase/ILF fusions. Lane 0, probe alone; lane 1, glutathione S-transferase (GST) protein alone; lane 2, a deletion of both the amino and carboxyl-termini in the GST/ILF fusion (ΔILF3); lane 3, a deletion of the ILF fork head DNA binding domain in addition to the amino and carboxyl termini in the GST/ILF fusion (ΔILF2); lane 4, an amino-terminal deletion of ILF in the GST/ILF fusion (ΔILF1).

The target of data set [2] is T2, GST/ILF delta1 (amino-terminal deletion) (Homo sapiens, UniProt Q01167 SEQ:97-540). The data set is described as follows: EMSA; 4 ug protein. The settings on record: tags: N-terminal GST (pGEX-3X); label: 32P (when probe).
T2 sequence (Q01167 217-660, stated change not applied): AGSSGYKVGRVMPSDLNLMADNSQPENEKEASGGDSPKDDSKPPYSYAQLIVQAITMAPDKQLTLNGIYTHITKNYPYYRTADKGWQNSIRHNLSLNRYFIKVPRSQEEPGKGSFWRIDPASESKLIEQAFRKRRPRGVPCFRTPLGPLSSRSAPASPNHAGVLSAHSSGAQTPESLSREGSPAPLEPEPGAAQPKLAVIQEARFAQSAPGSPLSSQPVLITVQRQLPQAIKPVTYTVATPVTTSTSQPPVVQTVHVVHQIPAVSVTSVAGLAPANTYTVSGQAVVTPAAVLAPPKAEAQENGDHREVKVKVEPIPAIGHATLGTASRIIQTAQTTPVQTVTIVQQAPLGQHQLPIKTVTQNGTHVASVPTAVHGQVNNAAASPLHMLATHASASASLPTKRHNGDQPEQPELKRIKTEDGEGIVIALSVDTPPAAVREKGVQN
Text: as §1, §2

In data set [3] the target is T3, GST/ILF amino and carboxyl deletion, fork head retained (Homo sapiens, UniProt Q01167 SEQ:97-367). Briefly: EMSA; 4 ug protein. Conditions: tags: N-terminal GST (pGEX-3X); label: 32P (when probe).
T3 sequence (Q01167 217-487, stated change not applied): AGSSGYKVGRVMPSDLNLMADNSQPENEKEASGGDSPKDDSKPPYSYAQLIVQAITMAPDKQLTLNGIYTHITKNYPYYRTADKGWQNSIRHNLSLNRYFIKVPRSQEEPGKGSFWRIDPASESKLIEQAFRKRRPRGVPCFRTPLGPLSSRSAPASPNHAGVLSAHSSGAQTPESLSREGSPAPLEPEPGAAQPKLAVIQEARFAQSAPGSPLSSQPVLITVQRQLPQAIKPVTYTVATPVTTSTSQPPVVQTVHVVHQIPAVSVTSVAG
Text: as §1, §2

The target of data set [4] is T4, GST/ILF amino, carboxyl and fork head deletion (Homo sapiens, UniProt Q01167 SEQ:97-186). Briefly: EMSA; fork head deleted. The settings on record: tags: N-terminal GST (pGEX-3X); label: 32P (when probe).
T4 sequence (Q01167 217-306, stated change not applied): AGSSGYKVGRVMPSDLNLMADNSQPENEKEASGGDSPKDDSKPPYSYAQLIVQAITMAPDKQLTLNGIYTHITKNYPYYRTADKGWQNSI
Text: as §1, §2

For data set [5], the target named is T5, GST/ILF fusion (Example 3) (Homo sapiens, UniProt Q01167 SEQ:1-540). Briefly: EMSA; self-competition observed. Conditions: tags: N-terminal GST (pGEX-3X); label: 32P (when probe). As to the method: Gel retardation of ILF with the IL-2 NFAT motif. (A) Oligonucleotides corresponding to the NFAT motif in the IL-2 promoter extending from −285 to −254 were end labeled with γP^32ATP and used in gel retardation analysis alone (lane 0), with glutathione-S-transferase (lane 1), or with a glutathione-S-transferase/ILF fusion protein (lanes 2–16). The specificity of binding was tested by competition with unlabeled oligonucleotides corresponding to the NFAT motif in the IL-2 promoter (lanes 2–4), sequences spanning −283 to −256 and −223 to −195 in the HIV-LTR which comprised distal (lanes 5–7) and proximal (lanes 8–10) NFAT motifs respectively, the hepatocyte nuclear factor HNF-3A binding site extending from −107 to −92 in the transthyretin promoter (lanes 11–13), and an AP-1 binding sequence extending from −103 to −83 in the early region 3 promoter (lanes 14–16). The unlabeled oligonucleotides were present in either an equimolar (lanes 2, 5, 8, 11, and 14), 5-fold (lanes 3, 6, 9, 12, and 15) or 20-fold (lanes 4, 7, 10, 13 and 16) molar excess of the labeled oligonucleotides. (B) Sequences of NFAT motifs in the IL-2 promoter and the distal and proximal regions of the HIV-LTR are shown.
T5 sequence (Q01167 121-660): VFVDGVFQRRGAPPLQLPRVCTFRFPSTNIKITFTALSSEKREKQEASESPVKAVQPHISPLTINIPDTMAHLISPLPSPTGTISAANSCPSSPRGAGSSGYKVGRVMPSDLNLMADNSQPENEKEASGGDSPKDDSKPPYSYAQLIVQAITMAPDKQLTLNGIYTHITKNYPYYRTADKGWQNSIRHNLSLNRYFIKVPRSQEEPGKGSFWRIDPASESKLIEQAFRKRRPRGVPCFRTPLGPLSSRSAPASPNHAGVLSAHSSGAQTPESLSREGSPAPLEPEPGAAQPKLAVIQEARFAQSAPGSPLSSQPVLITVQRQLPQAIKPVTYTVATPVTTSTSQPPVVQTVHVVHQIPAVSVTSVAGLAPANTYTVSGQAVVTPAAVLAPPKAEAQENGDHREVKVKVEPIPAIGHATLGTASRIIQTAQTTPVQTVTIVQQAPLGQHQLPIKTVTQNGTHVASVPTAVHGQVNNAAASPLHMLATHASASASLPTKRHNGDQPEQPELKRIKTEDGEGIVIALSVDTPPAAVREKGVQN
Two complexes I and II were noted; the major complex (I) was due to full-length GST/ILF while the lower complex (II) was due to GST/ILF degradation products. […]

Data set [6] deals with T6, beta-galactosidase/ILF fusion (Homo sapiens, UniProt Q01167 SEQ:138-372). The data set is described as follows: competition; complete competition. The settings on record: tags: N-terminal beta-galactosidase (lambda gt11).
T6 sequence (Q01167 258-492): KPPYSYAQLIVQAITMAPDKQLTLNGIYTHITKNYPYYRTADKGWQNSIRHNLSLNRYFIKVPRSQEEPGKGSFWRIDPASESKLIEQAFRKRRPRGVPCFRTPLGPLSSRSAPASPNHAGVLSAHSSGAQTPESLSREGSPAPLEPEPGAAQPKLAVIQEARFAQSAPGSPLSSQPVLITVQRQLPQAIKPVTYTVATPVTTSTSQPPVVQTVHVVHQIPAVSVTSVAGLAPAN
The target of data set [7] is T4, GST/ILF amino, carboxyl and fork head …. The data set is described as follows: EMSA; stated similar with proximal site. Conditions: tags: N-terminal GST (pGEX-3X).
Data set [8] has as its target T2, GST/ILF delta1 (amino-terminal deletion). Briefly: EMSA; stated similar binding with proximal site. The settings on record: tags: N-terminal GST (pGEX-3X).
Data set [9] has as its target T3, GST/ILF amino and carboxyl deletion, …. The data set is described as follows: EMSA; stated similar binding with proximal site. The settings on record: tags: N-terminal GST (pGEX-3X).
In data set [10] the target is T6, beta-galactosidase/ILF fusion. The data set is described as follows: competition; up to 50-fold excess. Conditions: tags: N-terminal beta-galactosidase (lambda gt11).
Data set [11] concerns the target T5, GST/ILF fusion (Example 3). The data set is described as follows: competition; no significant competition (also SEQ 27). The settings on record: tags: N-terminal GST (pGEX-3X).
The target of data set [12] is T5, GST/ILF fusion (Example 3). The data set is described as follows: competition; 1-, 5-, 20-fold excess against IL-2 NFAT probe. Conditions: tags: N-terminal GST (pGEX-3X).
The target in data set [13] is T6, beta-galactosidase/ILF fusion. Briefly: competition; up to 50-fold excess. The settings on record: tags: N-terminal beta-galactosidase (lambda gt11). As to the method: Figure 2: FIG. 2. Gel retardation analysis with β-galactosidase/ILF fusion protein. An HIV-LTR fragment extending from −310 to −255 was used in gel retardations with either β-galactosidase or β-galactosidase/ILF purified with anti-β-galactosidase sepharose chromatography. Lane 1, probe alone; lane 2, probe with 3 μg of β-galactosidase extract; lane 3, probe with 3 μg of β-galactosidase/ILF extract. Competition analysis with either a 10-fold (lanes 4, 6, 8, 10) or 50-fold (lanes 5, 7, 9, 11) molar excess of unlabeled oligonucleotides corresponding to ILF (lanes 4 and 5), NFAT (lanes 6 and 7), AP1 (lanes 8 and 9) and CREB (lanes 10 and 11) binding motifs are shown. Figure 3B: FIG. 3. Amino acid sequence of the ILF coding region. (A) A 543 amino acid open reading frame encoded by a portion of the ILF cDNA. The shaded region indicates the region of homology of ILF with the fork head and HNF-3A DNA binding domains. The circled region (GAGSSG) SEQ ID NO:12 contains homology with a nucleotide binding sequence, the boxed region (RKRRPR) SEQ ID NO:13 contains a potential nuclear localization signal, the underlined sequence (RTPLGPLSS) SEQ ID NO:14 is homologous to a region required for ubiquitin-mediated degradation, and the dotted line (NGT) indicates a potential N-glycosylation site. (B) The 3.0 kb ILF cDNA and the position of the 1629 bp open reading frame. […]
This is another data set of the same source.

The target of data set [14] is T1, glutathione S-transferase. Briefly: EMSA; control. Conditions: tags: pGEX-3X (Pharmacia), chain copies: 2.
Data set [15] concerns the target T2, GST/ILF delta1 (amino-terminal deletion). The data set is described as follows: EMSA; 4 ug protein. Conditions: tags: N-terminal GST (pGEX-3X).
In data set [16] the target is T6, beta-galactosidase/ILF fusion. The data set is described as follows: competition; competes with HIV-LTR probe at 10- or 50-fold excess. Conditions: tags: N-terminal beta-galactosidase (lambda gt11).
In data set [17] the target is T3, GST/ILF amino and carboxyl deletion, …. Briefly: EMSA; construct naming (delta2/delta3) differs between legend and methods. Conditions: tags: N-terminal GST (pGEX-3X).
The target in data set [18] is T4, GST/ILF amino, carboxyl and fork head …. The data set is described as follows: EMSA; fork head deleted; construct naming differs between legend and methods. The settings on record: tags: N-terminal GST (pGEX-3X).

T1 sequence (P08515 whole entry, the tested form may be a part, one chain of several): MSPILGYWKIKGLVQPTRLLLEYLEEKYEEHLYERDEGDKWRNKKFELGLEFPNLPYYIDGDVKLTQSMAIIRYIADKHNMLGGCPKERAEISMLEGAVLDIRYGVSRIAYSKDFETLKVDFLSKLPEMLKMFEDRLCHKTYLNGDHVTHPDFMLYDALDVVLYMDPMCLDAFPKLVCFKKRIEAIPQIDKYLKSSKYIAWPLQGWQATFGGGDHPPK

B1: IL-2 promoter NFAT motif (-285 to -254) (dsDNA)
DNA 1: AATTGGAGGAAAAACTGTTTCATACAGAAGGCGT
DNA 2: ACGCCTTCTGTATGAAACAGTTTTTCCTCCAATT
For B1, the binding result in [1] is listed as “no binding”; in [2], “binds”; in data set [3], “binds”; in data set [4], “no binding”; in data set [5] it was “binds”.

B2: HIV-1 LTR proximal ILF motif (-223 to -195) (dsDNA)
DNA 1: GAGGACGCGGAGAAAGAAGTGTTAGTGTG
DNA 2: CACACTAACACTTCTTTCTCCGCGTCCTC
For the molecule B2, the binding result in data set [6] was “binds”; in [7] it was “no binding”; in [8] it was “binds”; in data set [9], “binds”.

B3: AP1 site, adenovirus E3 promoter (-103 to -83) (dsDNA)
DNA 1: GAAGTTCAGATGACTAACTCA
DNA 2: TGAGTTAGTCATCTGAACTTC
As for B3, the binding result in [10] and in data set [11] was “no binding” each time.

B4: HIV-1 distal NFAT site (Example 3) (dsDNA)
DNA 1: GAAGAGGCCAATGAAGGAGAGAACAACA
DNA 2: TGTTGTTCTCTCCTTCATTGGCCTCTTC
B4: the binding result in data set [12] is reported as “binds”.

B5: CREB/ATF site, somatostatin promoter (-60 to -33) (dsDNA)
DNA 1: GGTTCCTCCTTGGCTGACGTCAGAGAGAGA
DNA 2: TCTCTCTCTGACGTCAGCCAAGGAGGAACC
On to B5, for which, in data set [13], the binding result is reported as “no binding”.

B6: HIV-1 LTR distal ILF motif (-283 to -256) (dsDNA)
DNA 1: GAAGAGGCCAATGAAGGAGAGAACAACA
DNA 2: TGTTGTTCTCTCCTTCATTGGCCTCTTC
Regarding B6, the binding result in data set [14] was “no binding”; in [15], “binds”; in data set [16] it was “binds”; in data set [17], “binds”; in data set [18], “no binding”.

B7: HIV-1 proximal NFAT site (Example 3) (dsDNA)
DNA 1: GAGGACGCGGAGAAAGAAGTGTTAAGTGTG
DNA 2: CACACTTAACACTTCTTTCTCCGCGTCCTC
Take B7: in data set [12], the binding result was “binds”.
